Measured values published in the supplement of paper PMC9170038.

Test system: MS2 coat protein
Test: apparent KD of MS2 coat protein; designed switch direction (-1 OFF switch, 1 ON switch): 1; higher = weaker reporter binding
In short: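 Stalled E. coli RNA polymerase transcribed designed RNA switches on Illumina chips, which were then titrated with SNAP-549-labelled MS2 coat protein, doubling from 0.7 or 1.5 nM to 3 µM. Steps lasted from 0.8–1.5 h at the lowest concentration to 10–20 min at the highest. The apparent KD is each design's median over clusters of curve-fitted normalised fluorescence.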

[1] = input ligand: microRNA oligo, concentration not stated
[2] = Eterna round: R95, input ligand: FMN 200 uM
[3] = Eterna round: R95, input ligand: microRNA oligo, concentration not stated
[4] = Eterna round: R95, input ligand: none

| Sequence | apparent KD of MS2 coat protein (input ligand: FMN 200 uM) | apparent KD of MS2 coat protein [1] | apparent KD of MS2 coat protein (input ligand: none) | apparent KD of MS2 coat protein [2] | apparent KD of MS2 coat protein [3] | apparent KD of MS2 coat protein [4] |
| --- | --- | --- | --- | --- | --- | --- |
| UGGUACAUGGGAGGAUAUCUCAUGGUGACAUGAGGAUCACCCAUGUAGUUGGACCGGAAACGGUGAGAGAAGGCCCAUGUACCU [JL SSNG1 3.74] (Eterna round: R96, puzzle: Same State NG 2) | 72.1 nM | 68.3 nM | 95.9 nM |  |  |  |
| UCUUGGUUUUUGCUCGUUUUUUGUGUUGAACAUGAGGAUCACCCAUGUAUUGUACAAUCCAAUUUAAUAAUGGUCCG [JMF 48] (Eterna round: R96, puzzle: Sensor for hsa-mir-208a) | 105 nM | 70.1 nM | 99.2 nM |  |  |  |
| UGCUAGGAUAUCUUGAGGAUCACCCAGGAGAAGGAGUAAAGUUAGGAUAUCCUGAGGAUCACCCAGGAGAAGGAGCACAUACUC [pwkr ssNG3 DX 2xF5 +2xFMN.14] (Eterna round: R96, puzzle: Same State NG 3) | 50.7 nM | 79.8 nM | 58.4 nM |  |  |  |
| GUGGUCAGACAUGAGGAUCACCCAUGUGGAAUAAAUAAGGAGAAGGAUAUGCAAUAUAGGAUAUAGCAGAAGGUUUGGUUGGUG (Eterna round: R96, puzzle: Same State NG 3) |  | 69.6 nM |  |  |  |  |
| AAAGGACAUGAGGAUCACCCAUGUAGAAAAUACACAGGAUAUCGUCAUAUCGAAUUAUAAUGAGAAGGGUGCAAAA [Vebeinlala] (puzzle: Same State 1) |  |  |  | 59.9 nM | 273 nM | 124 nM |
| AGGAGUAUCUGACAUGAGGAUCACCCAUGUUCCAUUCUACGAUAGGAUAUCGAAAUACAAAGACGCGAGAAGGAUCAGAACCUA [Eternabot solution 48] (Eterna round: R96, puzzle: Same State NG 3) | 23.2 nM | 16.5 nM | 26.8 nM |  |  |  |
| UAAAUAAUGUAAGGAUAUACAUGAGGAAUUCUCGUAGAAGGUACAUGACAUGAGGAUCACCCAUGUAUCGCUCAGAAGAGCGUA [Mat - Same State NG 1 - JL mod - D28] (Eterna round: R96, puzzle: Same State NG 1) | 1660 nM | 39.9 nM | 298 nM |  |  |  |
| GUCCAACAUGAGGAUCACCCAUGUCGGGCGUGCACAGGAUAUCGCGCCGGGAAAGCCCAGCGAGAAGGGUGAUCGA [Atveinla] (puzzle: Same State 1) |  |  |  | 197 nM | 57.8 nM | 50.9 nM |
| GGCGAAUAAACAUGAGGAUCACCCAUGUAGCGGAGACGCAAUGAGGAUAUCGAUGGGUUUCCCGUCGAGAAGGCAUGGGUCGCC [JL SSNG3 3.93 mod 1] (Eterna round: R96, puzzle: Same State NG 3) | 20.8 nM | 99.6 nM | 140 nM |  |  |  |
| GAGGGCGAAAGCAACAUGAGGAUCACCCAUGUCCUCGGAGGGCAGGAUAUCCGGCGGUAGCCGAAGGAGAAGGGUCGGUAAACC [AK SSNG3-V2-33] (Eterna round: R96, puzzle: Same State NG 3) | 258 nM | 214 nM | 184 nM |  |  |  |
| CGUAGGUGGCUGGAGGAUAUUCGAGUGGUAACAUGAGGAUCACCCAUGUGUCGCGCGGUACAUGAGGAGAAGGCUGGCGGCCUGC (puzzle: Same State 2) |  |  |  | 19.7 nM | 69.4 nM | 178 nM |
| GUGGAGGAUUAAGGAUAUUGAAUACAUAUGUUUAACAUGAGGAUCACCCAUGUGGGUUGCGGUAUCGAGAAGGUAAAUUACUGG [salish99_SSNG2_r04_034] (Eterna round: R96, puzzle: Same State NG 2) | 146 nM | 63.2 nM | 117 nM |  |  |  |
| AGCCUGAGUCGAGGAUAUUAUGGAUCCUUUAAUACAUGAGGAUCACCCAUGUAAUUAAUUAUACAUGAGAAGGCGACUCAGGCA [SSNG2/11-A1] (Eterna round: R96, puzzle: Same State NG 2) | 10.9 nM | 30.4 nM | 129 nM |  |  |  |
| UAGUACAUGCUUUUUGUCUGUCUUAGAUAACAUGAGGAUCACCCAUGUAAGGUGAAAGUUAUAUAGUUUAUGAAUAU [JR_SHM208A_Sub058] (Eterna round: R96, puzzle: Sensor for hsa-mir-208a) | 242 nM | 309 nM | 241 nM |  |  |  |
| GGAGCUGUUAUAGGAUAUCCCGCUCAUUACGCGGGAGAAGGGUGACGCUCACAUGAGGAUCACCCAUGUGGCGUUCCAAAAUAA [Reesti] (Eterna round: R96, puzzle: Same State NG 1) | 8.43 nM | 7.1 nM | 12.6 nM |  |  |  |
| GGUCCAGCCUGAGCUGGACCGAAGCAUGUACAUGAGGAUCACCCAUGUCAUGUACAGGCUUUUUGCUCGUCUUAUUG [JL-shm-2.12 JL Mod] (puzzle: Sensor for hsa-mir-208a) |  |  |  | 685 nM | 15.7 nM | 694 nM |

| Sequence | apparent KD of MS2 coat protein (input ligand: FMN 200 uM) | apparent KD of MS2 coat protein [1] | apparent KD of MS2 coat protein (input ligand: none) | apparent KD of MS2 coat protein [2] | apparent KD of MS2 coat protein [3] | apparent KD of MS2 coat protein [4] |
| --- | --- | --- | --- | --- | --- | --- |
| AGGCCAUCGGGAGGAUAUGGCACCUUAUUGGUGCCAGAAGGUCCAACAUGAGGAUCACCCAUGUGGGAGUGGUCUAAUGACCAC [Fiskers NG1(ss) - 4] (Eterna round: R96, puzzle: Same State NG 1) | 64.3 nM | 58.1 nM | 64 nM |  |  |  |
| AGUCCAGCGAAAGCUGGACAAAAGCAUGUACAUGAGGAUCACCCAUGUUCAUGUACAAGCUUUUUGCUCGUCUUGAA [JL mod - D95 - 9] (puzzle: Sensor for hsa-mir-208a) |  |  |  | 313 nM | 17.1 nM | 611 nM |
| UCGGGCGUACUUGCAGACAUGAGGAUCACCCAUGUAAAUGGGAAGGAUAUGGUACCGUUUCGGUACCAGAAGGUCCUGGGUGCU [salish99_SSNG3_r04_308] (Eterna round: R96, puzzle: Same State NG 3) | 810 nM | 281 nM | 1960 nM |  |  |  |
| AUUUUUAAUGCAGGAUAUGAUUAACAUGAGGAUCACCCAUGUGGUGUUGUGAGUAAGGAGAGUGAUCAGAAGGGCAUUUCUUUU [JMF's solution 82] (Eterna round: R96, puzzle: Same State NG 2) | 593 nM | 337 nM | 540 nM |  |  |  |
| CAGAGCCCAUGGGCCUGACAUGAGGAUCACCCAUGUGGCUUUGAGGAUAUAAGCGGAAACAGCGCUUAGAAGGCGAAGCCUAAC [Rearisve] (Eterna round: R96, puzzle: Same State NG 3) | 157 nM | 14.1 nM | 41.9 nM |  |  |  |
| AUAAAACAUGAGGAUCACCCAUGUCUCUAAAGUCGAGGAUAUGGGCAAAUAAUAUAAGAACCAGAAGGCGAAUAAU [SS1 Teenbexe 3] (puzzle: Same State 1) |  |  |  | 58.1 nM | 51.2 nM | 530 nM |
| CUCAACAACACAGGAUAUCCAGGUAAAAGACCUGGAGAAGGGUGACCAACAUGAGGAUCACCCAUGUGACAGCCAGGCUGUCUG [Isbitiqu] (Eterna round: R96, puzzle: Same State NG 1) | 87.8 nM | 4.41 nM | 371 nM |  |  |  |
| GGUCCAGCCUGAGCUGGACAAAAGCAUGUACAUGAGGAUCACCCAUGUUCAUGUACAAGCUUUUUGCUCGUCUUAUC [salish99_208a_r3_056] (puzzle: Sensor for hsa-mir-208a) |  |  |  | 431 nM | 14.6 nM | 664 nM |
| GCAGAACAUGAGGAUCACCCAUGUCUCUAAUAUCGAGGAUAUGGGCAGGGUAUAUCCCAACCAGAAGGCGAACUGC [SS1 Teenbexe 14] (puzzle: Same State 1) |  |  |  | 51.7 nM | 140 nM | 205 nM |
| UGUCCAGCCUGAGCUGGACAAAAGCAUGUACAUGAGGAUCACCCAUGUUCAUGUACAAGCUUUUUGCUCGUCUUAGA [salish99_208a_r3_064] (puzzle: Sensor for hsa-mir-208a) |  |  |  | 480 nM | 15.8 nM | 587 nM |
| GUGGUCAGACAUGAGGAUCACCCAUGUGGAAUAAAUAACACACAGGAUAUCGAAUAUAAAAUAUACGAGAAGGGUGGAUUGGUG (Eterna round: R96, puzzle: Same State NG 3) |  | 334 nM |  |  |  |  |
| CGACUAAAGUCACAGGAUAUACGCCGUACUACAUGAGGAUCACCCAUGUUCGGGACAGUCGCGGUGUAGAAGGGUGUGGGUCAAC [Errabeed] (puzzle: Same State 2) |  |  |  | 17.6 nM | 31.2 nM | 38.9 nM |
| UUAGAAUACGCAGGAUAUCGAUGAUUGAUAGUACGAGAAGGGCGAACAUGAGGAUCACCCAUGUAUAUUAAUUUGAGUUUGAAU [JR_SSNG1_Sub076] (Eterna round: R96, puzzle: Same State NG 1) | 69.4 nM | 120 nM | 214 nM |  |  |  |
| GGAAUAUGAUGUUACAUGAGGAUCACCCAUGUAGUAAUAACUAAGGAUAUCUGAAAAGGAGGAGAAGAGAAGGUAGGAUCAUAA [AK SSNG3-V2-10.1] (Eterna round: R96, puzzle: Same State NG 3) | 13.3 nM | 22.5 nM | 33.3 nM |  |  |  |
| AUUGCUAGCACAGGAUAUCAUGCGAAAAUUGCGUGAGAAGGGUGGACUCUGUCAUUCACGGAGGACAUGAGGAUCACCCAUGUC [SameState NG1 #80] (Eterna round: R96, puzzle: Same State NG 1) | 193 nM | 31.9 nM | 62.3 nM |  |  |  |
